B1: GRF4, Split-LUC fusion [Arabidopsis thaliana] / PI-PLC2, Split-LUC fusion [Arabidopsis thaliana] (parent)
chain 1: MAAPPASSSAREEFVYLAKLAEQAERYEEMVEFMEKVAEAVDKDELTVEERNLLSVAYKNVIGARRASWRIISSIEQKEESRGNDDHVTTIRDYRSKIESELSKICDGILKLLDTRLVPASANGDSKVFYLKMKGDYHRYLAEFKTGQERKDAAEHTLTAYKAAQDIANAELAPTHPIRLGLALNFSVFYYEILNSPDRACNLAKQAFDEAIAELDTLGEESYKDSTLIMQLLRDNLTLWTSDMQDESPEEIKEAAAPKPAEEQKEI
chain 2: MSKQTYKVCFCFRRRFRYTASEAPREIKTIFEKYSENGVMTVDHLHRFLIDVQKQDKATREDAQSIINSASSLLHRNGLHLDAFFKYLFGDNNPPLALHKVHHDMDAPISHYFIFTGHNSYLTGNQLSSDCSEVPIIDALKKGVRVIELDIWPNSNKDDIDVLHGMTLTTPVGLIKCLKAIRAHAFDVSDYPVVVTLEDHLTPDLQSKVAEMVTEIFGEILFTPPVGESLKEFPSPNSLKRRIIISTKPPKEYKEGKDVEVVQKGKDLGDEEVWGREVPSFIQRNKSEAKDDLDGNDDDDDDDDEDKSKINAPPQYKHLIAIHAGKPKGGITECLKVDPDKVRRLSLSEEQLEKAAEKYAKQIVRFTQHNLLRIYPKGTRVTSSNYNPLVGWSHGAQMVAFNMQGYGRSLWLMQGMFRANGGCGYIKKPDLLLKSGSDSDIFDPKATLPVKTTLRVTVYMGEGWYFDFRHTHFDQYSPPDFYTRVGIAGVPGDTVMKKTKTLEDNWIPAWDEVFEFPLTVPELALLRLEVHEYDMSEKDDFGGQTCLPVWELSEGIRAFPLHSRKGEKYKSVKLLVKVEFV

Variants of: B1
Assay: Split-LUC
Details: with PI-PLC2, Split-LUC fusion [Arabidopsis thaliana]; P3: nluc-GRF4 S242A, cluc-PI-PLC2, 35S::IPCK1-flag co-infiltrated (1:1:2); Total cps 91336, Areas 49.23; parent value is P1, which the printed layout grid …; parent: 1.67e+03

| response (cps (average)) | Variant |
| --- | --- |
| 1860 | chain 1 MAAPPASSSAREEFVYLAKLAEQAERYEEMVEFMEKVAEAVDKDELTVEERNLLSVAYKNVIGARRASWRIISSIEQKEESRGNDDHVTTIRDYRSKIESELSKICDGILKLLDTRLVPASANGDSKVFYLKMKGDYHRYLAEFKTGQERKDAAEHTLTAYKAAQDIANAELAPTHPIRLGLALNFSVFYYEILNSPDRACNLAKQAFDEAIAELDTLGEESYKDSTLIMQLLRDNLTLWTADMQDESPEEIKEAAAPKPAEEQKEI [chain 1 S242A] |

Same assay, conditions: with PI-PLC2, Split-LUC fusion [Arabidopsis thaliana]; P4: nluc-GRF4 S242D, cluc-PI-PLC2, 35S::IPCK1-flag co-infiltrated (1:1:2); Total cps 150882, Areas 56.84; parent value is P1, which the printed layout grid …; parent: 1.67e+03

| response (cps (average)) | Variant |
| --- | --- |
| 2650 | chain 1 MAAPPASSSAREEFVYLAKLAEQAERYEEMVEFMEKVAEAVDKDELTVEERNLLSVAYKNVIGARRASWRIISSIEQKEESRGNDDHVTTIRDYRSKIESELSKICDGILKLLDTRLVPASANGDSKVFYLKMKGDYHRYLAEFKTGQERKDAAEHTLTAYKAAQDIANAELAPTHPIRLGLALNFSVFYYEILNSPDRACNLAKQAFDEAIAELDTLGEESYKDSTLIMQLLRDNLTLWTDDMQDESPEEIKEAAAPKPAEEQKEI [chain 1 S242D] |

From paper PMC11178898, “A clade of receptor-like cytoplasmic kinases and 14-3-3 proteins coordinate inositol hexaphosphate accumulation” (Nature Communications, 2024)
